Data: patent US20190375786A1, “STABLE PEPTIDES AND METHODS OF USE THEREOF” (Fred Hutchinson Cancer Research Center, priority 2016, published 2019)
Positions of bridges follow the written chain, without caps; N, C: chain ends. Residues, ends and D or L forms follow the SMILES beside them.

Key:
[1] = Resistance to reduction by reduced glutathione (GSH), HPLC; type: physicochemical; conditions: 10 mM reduced glutathione (GSH); HPLC vs non-reduced peptide
Experimental: This example describes stability of designed or engineered peptides under reducing conditions. Peptides that are designed or engineered to interact with one or more target proteins in the cell, such as proteins in the nucleus, are exposed to reducing conditions in the cytosolic compartment of cells. Thus, it is advantageous for peptides of this disclosure to display stability in reducing conditions. Stability of peptides of this disclosure was tested in 10 mM DTT and 10 mM GSH. GSH is a more physiologically relevant reducing agent for testing peptide stability in intracellular conditions. An example of a peptide-target protein interaction is a peptide binding to a TEAD protein.

trypsin = trypsin (Sus scrofa, UniProt P00761); experiment: SDPR surface display protease resistance, anti-6xHis staining, trypsin; type: cell-based; conditions: HEK-293 cells, up to 40 μg/ml trypsin for 20 minutes
Experimental: (§1) Soluble peptides were exposed to 500 U/mL porcine trypsin and analyzed by HPLC. Protease resistance was also assessed by using SDPR-displaying peptides. The SDPR vector is similar to the a surface display GFP FasL(SDGF) vector, but contains a C-terminal 6×His tag (SEQ ID NO: 180) and all basic or aromatic amino acid residues on the stalk removed. Protease resistance is then tested by incubation of cells displaying peptides with trypsin or chymotrypsin, followed by incubation in 10 mM DTT, and staining with an anti-6×His fluorophore-labeled antibody (“6×His” disclosed as SEQ ID NO: 180). If peptides are uncleaved, they retain the His tag and are stained with by the antibody. A control protease-sensitive knottin peptide (SK) was used as a positive control. Cells displaying peptides were treated with up to 40 μg/ml trypsin or chymotrypsin.
(§2) To determine the impact of protease treatment or reducing condition on the function of the peptides, i.e., binding activity, various binding or functional assays can be performed. […] After treatment with the protease and reducing agent, any linearized peptide product or degradation product resulting from reduction and/or proteolysis by treatment with a protease can be detected or analyzed by staining against the 6×His tag (SEQ ID NO: 180). […]

chymotrypsin = experiment: SDPR surface display protease resistance, anti-6xHis staining, chymotrypsin; type: cell-based; conditions: HEK-293 cells, up to 40 μg/ml chymotrypsin for 20 minutes
Experimental: as §1, §2

[2] = oral administration; cited from earlier work
[3] = Circular dichroism in neutral, SDS and acidic buffers; type: physicochemical
Experimental: CD spectra were measured with a Jasco J-720W spectropolarimeter using a 1.0 mm path length cell. Lyophilized peptide samples were resuspended in ultra pure water. CD runs were carried out by diluting peptides in 20 mM phosphate buffer saline (pH 7.4), 20 mM phosphate buffer saline (pH 7.4) supplemented with 1% sodium dodecyl sulfate (SDS), or phosphate buffer saline at pH 4. Peptides were diluted to 15-25 μM in concentration. Data are shown in terms of total molar ellipticity [θ]; (deg cm^2 dmol^−1).

[4] = Combined resistance grouping of hitchin peptides (FIG. 27, from Table 2 data); type: physicochemical; conditions: FIG. 27 grouping of hitchin peptides
Experimental: As shown by the data in TABLE 2, the tested peptides of the present disclosure show a range of resistance to proteases, reduction, and high temperature. The peptides were classified as high, medium, or low for each condition. […] For example, after a peptide is treated at 100° C., if the HPLC peak of the peptide is mostly absent as compared to HPLC peak of the peptide not treated at 100° C., then the peptide is classified as low or having low resistance to 100° C. After a peptide is treated with reducing conditions, if there is no or very minimal HPLC peak that overlaps with the HPLC peak of the peptide not treated with reducing conditions, then the peptide is classified as low or having low resistance to reducing conditions.
The peptides with the highest resistance data were further analyzed. […] The six peptides that were further tested were peptides comprising the sequences of SEQ ID NO: 27, SEQ ID NO: 24, SEQ ID NO: 6, SEQ ID NO: 10, SEQ ID NO: 12, and SEQ ID NO: 57, which were all hitchins. […] FIG. 27C is a sequence analysis of SEQ ID NO: 27, SEQ ID NO: 24, SEQ ID NO: 6, SEQ ID NO: 10, SEQ ID NO: 12, and SEQ ID NO: 57 from FIG. 27B. FIG. 27C identifies which amino acids are present at each position in SEQ ID NO: 27, SEQ ID NO: 24, SEQ ID NO: 6, SEQ ID NO: 10, SEQ ID NO: 12, and SEQ ID NO: 57. For example, at position one, all peptide sequences comprise a G amino acid residue; at position two, all peptide sequences comprise an S amino acid residue; at position three, all peptide sequences comprise either G, Q, or V amino acid, or null; and at position four, all peptide sequences comprise V, R, or K amino acid, or null. […] SEQ ID NO: 167 and SEQ ID NO: 168 describe sequences of peptides that are particularly resistant to reduction, pepsin, 75° C., and 100° C., which would typically degrade peptides. […] Additionally, SEQ ID NO: 169 describes sequences of peptides that are also particularly resistant to trypsin.

Chain of trypsin (P00761 9-231): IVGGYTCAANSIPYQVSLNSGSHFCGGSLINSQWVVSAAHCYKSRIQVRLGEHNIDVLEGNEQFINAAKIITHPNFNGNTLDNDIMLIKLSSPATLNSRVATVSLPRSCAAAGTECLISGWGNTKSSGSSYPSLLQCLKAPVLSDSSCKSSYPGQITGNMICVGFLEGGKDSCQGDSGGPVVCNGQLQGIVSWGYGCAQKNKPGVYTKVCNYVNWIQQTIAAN

PDEYIERAKECCKKQDIQCCLRIFDESKDPNVMLICLFCW [SEQ ID NO: 126]
resistance to GSH reducing conditions [1]: resistant | resistance of surface-displayed peptide to cleavage by trypsin (trypsin): partially resistant | resistance of surface-displayed peptide to cleavage by chymotrypsin (chymotrypsin): partially resistant

C[C@@H]1NC(=O)[C@@H]2CCCN2C(=O)[C@H](CC(N)=O)NC(=O)[C@@H]2CSSC[C@H](N)C(=O)N[C@H]3CSSC[C@H](NC1=O)C(=O)N[C@@H]([C@@H](C)O)C(=O)NCC(=O)N[C@H](C(=O)N[C@@H](Cc1ccc(O)cc1)C(=O)O)CSSC[C@H](NC(=O)[C@H](Cc1ccc(O)cc1)NC(=O)[C@H](CCC(=O)O)NC3=O)C(=O)N2 [linaclotide] (H-CCEYCCNPACTGCY-OH; disulfide 1-6, 2-10, 5-13)
systemic absorption into the plasma [2]: not significantly systemically absorbed

GSVFINVKCRGSPECLPKCKEAIGKSAGKCMNGKCKCYP [SEQ ID NO: 37]
secondary structure by CD in phosphate buffer saline at pH 4 ([3]; pH 4): retained its secondary structure | secondary structure by CD in phosphate buffer saline at pH 7.2 ([3]; pH 7.2): retained its secondary structure | secondary structure by CD in phosphate buffer saline at pH 7.2 with 1% SDS ([3]; pH 7.2, 1% sodium dodecyl sulfate): lost secondary structure | combined resistance to reduction, pepsin and elevated temperatures such as 75° C. and 100° C. [4]: not highly resistant
